According to the supplement of paper PMC11246515:
± gives the standard deviation of the averaged measurements.

Assay: total protein half-life in vivo (active degradation + dilution); higher = more stable protein
[1] = E. coli NCM3722 delta-clpP delta-lon delta-hslV, growth: N-lim chemostat, doubling time 6 h
[2] = wild type E. coli NCM3722, growth: C-lim chemostat, doubling time 3 h
[3] = wild type E. coli NCM3722, growth: C-lim chemostat, doubling time 6 h
[4] = wild type E. coli NCM3722, growth: C-lim chemostat, doubling time 12 h
[5] = wild type E. coli NCM3722, growth: P-lim chemostat, doubling time 6 h
[6] = wild type E. coli NCM3722, growth: P-lim chemostat, doubling time 12 h
[7] = E. coli NCM3722 delta-clpP, growth: N-lim chemostat, doubling time 6 h
[8] = E. coli NCM3722 delta-hslV, growth: N-lim chemostat, doubling time 6 h
[9] = E. coli NCM3722 delta-lon, growth: N-lim chemostat, doubling time 6 h
[10] = E. coli NCM3722 delta-smpB, growth: N-lim chemostat, doubling time 6 h
[11] = wild type E. coli NCM3722, growth: N-lim chemostat, doubling time 6 h
[12] = wild type E. coli NCM3722, growth: N-lim chemostat, doubling time 12 h

Row | Sequence | total protein half-life in vivo [1] [h] | total protein half-life in vivo [2] [h] | total protein half-life in vivo [3] [h] | total protein half-life in vivo [4] [h] | total protein half-life in vivo [5] [h] | total protein half-life in vivo [6] [h] | total protein half-life in vivo [7] [h] | total protein half-life in vivo [8] [h] | total protein half-life in vivo [9] [h] | total protein half-life in vivo [10] [h] | total protein half-life in vivo [11] [h] | total protein half-life in vivo [12] [h]
1 | MKIVKAEVFVTCPGRNFVTLKITTEDGITGLGDATLNGRELSVASYLQDHLCPQLIGRDAHRIEDIWQFFYKGAYWRRGPVTMSAISAVDMALWDIKAKAANMPLYQLLGGASREGVMVYCHTTGHSIDEALDDYARHQELGFKAIRVQCGIPGMKTTYGMSKGKGLAYEPATKGQWPEEQLWSTEKYLDFMPKLFDAVRNKFGFNEHLLHDMHHRLTPIEAARFGKSIEDYRMFWMEDPTPAENQECFRLIRQHTVTPIAVGEVFNSIWDCKQLIEEQLIDYIRTTLTHAGGITGMRRIADFASLYQVRTGSHGPSDLSPVCMAAALHFDLWVPNFGVQEYMGYSEQMLEVFPHNWTFDNGYMHPGDKPGLGIEFDEKLAAKYPYEPAYLPVARLEDGTLWNW | 5.64 ± 0.3 | 3.61 ± 0.2 | 6.03 ± 0.18 | 10.5 ± 1.8 | 7.33 | > 16 |  |  |  |  |  | 
2 | MKIYLVGGAVRDALLGLPVKDRDWVVVGSTPQEMLDAGYQQVGRDFPVFLHPQTHEEYALARTERKSGSGYTGFTCYAAPDVTLEDDLKRRDLTINALAQDDNGEIIDPYNGLGDLQNRLLRHVSPAFGEDPLRVLRVARFAARYAHLGFRIADETLALMREMTHAGELEHLTPERVWKETESALTTRNPQVFFQVLRDCGALRVLFPEIDALFGVPAPAKWHPEIDTGIHTLMTLSMAAMLSPQVDVRFATLCHDLGKGLTPPELWPRHHGHGPAGVKLVEQLCQRLRVPNEIRDLARLVAEFHDLIHTFPMLNPKTIVKLFDSIDAWRKPQRVEQLALTSEADVRGRTGFESADYPQGRWLREAWEVAQSVPTKAVVEAGFKGVEIREELTRRRIAAVASWKEQRCPKPE | 4.23 ± 0.88 | 2.96 ± 0.27 | 5.06 ± 0.79 | 8.37 ± 0.69 | 5.114 ± 0.016 | 9.86 ± 0.35 | 3.75 ± 0.11 | 3.29 ± 0.057 | 3.79 ± 0.16 | 3.37 ± 0.045 | 3.48 ± 0.28 | 5.55 ± 0.2
3 | MKKFAAVIAVMALCSAPVMAAEQGGFSGPSATQSQAGGFQGPNGSVTTVESAKSLRDDTWVTLRGNIVERISDDLYVFKDASGTINVDIDHKRWNGVTVTPKDTVEIQGEVDKDWNSVEIDVKQIRKVNP [P0ADU5] | 3.85 ± 0.19 | 2.89 ± 0.69 | 5.83 ± 0.75 | 6.74 ± 1.2 | 4.72 ± 0.64 | 7.98 ± 1.5 | 5.07 ± 0.71 | 5.86 ± 0.11 | 6.2 ± 0.35 | 5.91 ± 0.28 | 6.22 ± 0.79 | 11.8 ± 0.34
4 | MKKIAAISLISIFIMSGCAVHNDETSIGKFGLAYKSNIQRKLDNQYYTEAEASLARGRISGAENIVKNDATHFCVTQGKKMQIVELKTEGVGLHGVARLTFKCGE |  | 3.03 ± 0.37 | 5.62 ± 0.76 | 11.3 ± 0.14 |  |  | 5.75 ± 0.084 | 6.67 ± 0.98 |  | 6.04 ± 0.45 | 6.8 ± 0.99 | 13.1 ± 1.9
5 | MKKIAFGCDHVGFILKHEIVAHLVERGVEVIDKGTWSSERTDYPHYASQVALAVAGGEVDGGILICGTGVGISIAANKFAGIRAVVCSEPYSAQLSRQHNDTNVLAFGSRVVGLELAKMIVDAWLGAQYEGGRHQQRVEAITAIEQRRN | 4.69 ± 0.15 | 3.05 ± 0.37 | 5.6 ± 0.41 | 9.29 ± 1.4 | 5.32 ± 0.18 | 10.2 ± 0.91 |  | 3.77 ± 0.19 | 3.82 ± 0.13 | 3.45 ± 0.1 | 3.725 ± 0.033 | 5.17 ± 1
6 | MKKIAITCALLSSLVASSVWADAASDLKSRLDKVSSFHASFTQKVTDGSGAAVQEGQGDLWVKRPNLFNWHMTQPDESILVSDGKTLWFYNPFVEQATATWLKDATGNTPFMLIARNQSSDWQQYNIKQNGDDFVLTPKASNGNLKQFTINVGRDGTIHQFSAVEQDDQRSSYQLKSQQNGAVDAAKFTFTPPQGVTVDDQRK | 4.62 ± 0.5 | 3.364 ± 0.025 | 5.679 ± 0.056 | 9.08 ± 0.39 | 5.978 ± 0.007 | 12.124 ± 0.011 | 5.76 ± 1 | 7.06 ± 1.3 |  |  | 6.25 ± 0.41 | 12.5 ± 0.7
7 | MKKIECACNFLMDKDAQGYIDLSDLDLTSCHFKGDVISKVSFLSSNLQHVTFECKEIGDCNFTTAIVDNVIFRCRRLHNVIFIKASGECVDFSKNILDTVDFSQSQLGHSNFRECQIRNSNFDNCYLYASHFTRAEFLSAKEISFIKSNLTAVMFDYVRMSTGNFKDCITEQLELTIDYSDIFWNEDLDGYINNIIKMIDTLPDNAMILKSVLAVKLVMQLKILNIVNKNFIENMKKIFSHCPYIKDPIIRSYIHSDEDNKFDDFMRQHRFSEVNFDTQQMIDFINRFNTNKWLIDKNNNFFIQLIDQALRSTDDMIKANVWHLYKEWIRSDDVSPIFIETEDNLRTFNTNELTRNDNIFILFSSVDDGPVMVVSSQRLHDMLNPTKDTNWNSTYIYKSRHEMLPVNLTQETLFSSKSHGKYALFPIFTASWRAHRIMNKGV |  |  |  | 11.2 |  |  |  |  |  |  |  | 
8 | MKKIICLVITLLMTLPVYAKLTAHEEARINAMLEGLAQKKDLIFVRNGDEHTCYEAVSHLRLKLGNTRNRIDTAEQFIDKVASSSSITGKPYIVKIPGKSDENAQPFLHALIAQTDKTVPAEGN |  |  |  | 3.18 |  |  |  |  |  |  |  | 
9 | MKKILTTPIKAEDLQDIRVGDVIYLTGTLVTCRDVCHRRLIELKRPIPYDLNGKAIFHAGPIVRKNGDKWEMVSVGPTTSMRMESFEREFIEQTGVKLVVGKGGMGPLTEEGCQKFKALHVIFPAGCAVLAATQVEEIEEVHWTELGMPESLWVCRVKEFGPLIVSIDTHGNNLIAENKKLFAERRDPIVEEICEHVHYIK [P0AC35] | 6.21 |  |  |  |  |  |  |  |  |  |  | 
10 | MKKIPLGTTDITLSRMGLGTWAIGGGPAWNGDLDRQICIDTILEAHRCGINLIDTAPGYNFGNSEVIVGQALKKLPREQVVVETKCGIVWERKGSLFNKVGDRQLYKNLSPESIREEVAASLQRLGIDYIDIYMTHWQSVPPFFTPIAETVAVLNELKSEGKIRAIGAANVDADHIREYLQYGELDIIQAKYSILDRAMENELLPLCRDNGIVVQVYSPLEQGLLTGTITRDYVPGGARANKVWFQRENMLKVIDMLEQWQPLCARYQCTIPTLALAWILKQSDLISILSGATAPEQVRENVAALNINLSDADATLMREMAEALER | 3.71 ± 1.3 | 2.96 ± 0.2 | 5.64 ± 1.4 | 8.09 ± 1.9 | 6.344 ± 0.018 | 11.9 ± 0.44 |  | 4.29 ± 0.48 |  | 4.19 ± 0.18 | 3.97 ± 0.2 | 6.75
11 | MKKKILAFGLISALFCSTPAMADMNRTTKGALLGAGVGLLTGNGVNGVLKGAAVGAGVGAVTEKGRDGKNARKGAKVGAAVGAVTGVLTGNGLEGAIKGAVIGGTGGAILGKMK [Q7DFV3] |  | 1.42 ± 0.11 | 1.67 |  | 2.752 ± 0.007 | 5.14 ± 0.75 |  | 1.46 ± 0.28 |  | 1.39 | 1.78 ± 0.36 | 1.87
